Results as given in the supplement of paper PMC10567573.

B1: GNB5 (parent)
chain: DINSVRYYPSGDAFASGSDDATCR

Variants of: B1
Experiment: protein stability index of a GFP-peptide fusion (GPS, HEK-293T) (PSI 1-6); higher = more stable
Conditions: c terminus: a fixed tail appended
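Further: lentivirally expressed fusions sorted by FACS into six bins by GFP to DsRed ratio, PSI derived from sequencing read proportions per bin multiplied by bin number.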

Protein stability index: each site, then its substitutions
I2: D 5.39, E 4.87, W 3.99, H 4.51, S 4.6, P 4.92, Y 4.32, F 3.98, V 3.93, N 4.92, R 4.36, Q 4.72, T 4.49, M 4.1, K 4.68, G 4.54, L 3.82, C 4.32, A 4.41
G11: S 4.09, P 3.93, H 3.62, N 3.81, E 4.72, K 3.68, T 3.74, I 3.59, C 3.23, L 3.9, F 3.61, Y 3.48, A 3.61, V 3.46, W 2.91, D 4.4, M 4.02, Q 3.91, R 3.67
S16: W 3.15, Y 3.55, K 3.34, E 4.55, R 3.77, C 3.66, H 3.84, V 3.84, L 3.58, D 4.27, M 3.29, N 4.15, P 3.88, I 3.27, A 4.04, G 4.28, Q 3.78, T 3.49, F 3.46
S4: K 4.08, T 4.23, F 3.48, R 3.81, M 4.21, Q 3.83, W 3.22, L 3.42, G 3.6, V 2.55, Y 3.75, N 3.55, D 4.53, I 3.55, C 3.44, H 4.07, P 4.32, A 3.95, E 4.29
A13: I 3.28, E 4.66, T 4, K 3.53, Y 3.22, P 4.14, G 4.03, C 3.71, W 3.42, D 4.47, Q 4.4, H 4.02, L 3.44, N 3.98, M 3.69, F 3.12, R 3.81, S 3.88, V 3.69
Y8: R 4.65, M 4.55, Q 4.77, E 4.8, P 4.63, L 4.39, H 3.78, F 3.82, N 4.34, D 4.87, T 4.45, I 4.5, K 3.79, A 4.49, V 4.55, W 4.24, S 3.94, C 4.43, G 4.43
N3: F 3.76, K 4.04, C 3.87, V 3.56, L 3.35, S 4.07, T 3.77, E 4.52, D 5.08, P 4.64, Q 4.31, W 3.74, H 4.43, R 4.55, I 3.57, Y 3.68, G 4.53, M 3.42, A 4.66
D12: G 3.54, F 2.69, Q 3.46, H 3.34, Y 3.19, N 3.06, S 3.46, M 2.7, E 3.61, I 3.08, C 2.66, L 2.87, R 3.33, V 2.94, T 3.31, P 3.34, A 3.4, W 2.77, K 3
S10: G 4.35, A 3.76, K 3.71, V 3.73, I 3.76, W 3.35, C 3.49, D 4.32, M 3.43, T 3.68, E 4.63, H 3.65, R 3.4, Y 3.1, N 3.95, L 3.43, P 4.23, F 3.3, Q 4.08
Y7: M 4.12, P 4.46, C 3.87, W 3.11, S 4.69, R 4.2, I 3.76, A 4.5, H 4.38, Q 4.21, E 5.19, N 4.26, V 4.51, T 4.64, G 4.39, D 4.77, F 3.87, K 4.35, L 3.61
S18: G 4.48, N 4, F 3.26, C 3.88, K 3.55, H 3.82, L 3.55, D 4.24, E 4.43, M 3.49, I 3.56, A 3.35
R6: V 3.91, P 4.29, G 4.3, W 3.33, H 4.26, I 3.88, Y 3.62, S 4.41, K 4.34, N 4.31, M 4.04, D 4.58, A 4.44, Q 4.64, L 3.56, E 5.13, F 3.57, C 3.9, T 4.82
A15: F 2.83, T 3.63, P 3.92, H 3.7, R 2.99, V 3.91, M 3.57, N 4.12, I 3.43, E 4.09, S 3.66, Y 3.23, L 3.73, W 3.29, C 3.66, G 3.51, D 4.16, Q 3.86, K 3.58
F14: L 4.1, C 4.16, I 4.49, K 4.12, Y 4.09, T 4.75, E 5, N 3.8, M 3.85, P 4.38, G 5.08, W 3.94, D 4.16, Q 4.44, S 4.64, R 3.64, H 3.99, V 4.28, A 4.21
V5: M 3.92, H 3.91, R 3.73, T 4.28, Q 3.85, C 3.81, L 3.49, G 3.77, I 4.19, F 3.74, E 4.61, Y 3.6, W 3.88, N 3.46, D 4.41, K 3.91, S 4.26, P 4.51, A 4.38
D1: C 3.44, M 3.81, K 3.85, G 4.36, H 3.48, P 3.33, Q 4.23, R 4.04, N 4.37, I 3.48, L 3.73, V 3.58, T 3.95, S 4.74, F 2.54, Y 2.5, W 2.68, E 4.1
P9: S 4.17, Y 3.35, V 3.62, C 3.17, K 3.62, Q 3.8, N 3.82, W 3.23, A 3.59, L 3.26, I 2.7, M 3.3, E 4.16, F 2.74, H 3.52, R 3.69, T 4.02, D 4.43, G 4.13
G17: I 3.21, P 4.05, W 3.07, S 3.84, M 3.29, L 3.12, T 3.63, N 3.68, V 3.65, A 3.74, Y 3.29, C 3.66, R 3.65, K 3.65, D 4.4, H 3.4, F 2.93, Q 3.75, E 4.34
